Data: PMC7473639, “Functionally distinct roles for T and Tbx6 during mouse development”

Assays:
[1] = molecular target: T1, T-DBD (Brachyury T-domain) (mouse, UniProt P20293 41-224); test: quantitative EMSA; Hill coefficient 14.42; 25 mM HEPES pH 7.4, 75 mM NaCl, 1 mM DTT, 0.25 mM EDTA, 0.1% NP-40, 1 mM MgCl2, 10% glycerol, 10 µg/ml BSA, 0.1 mg/ml poly dI-dC; room temperature, 20 min (1 h); conditions: protein: recombinant; tags: N-terminal His (pET151/D-TOPO), removed by TEV; chain copies: 2; label: 32P 5' end label; blunt (annealed; only one strand given)
T1 sequence: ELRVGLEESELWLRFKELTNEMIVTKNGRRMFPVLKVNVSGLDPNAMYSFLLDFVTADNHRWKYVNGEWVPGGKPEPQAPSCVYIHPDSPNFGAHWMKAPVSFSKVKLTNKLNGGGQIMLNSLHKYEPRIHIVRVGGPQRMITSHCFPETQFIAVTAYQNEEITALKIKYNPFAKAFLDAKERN

Tbx6-DBD (T-domain) [2] = molecular target: T2, Tbx6-DBD (T-domain) (mouse, UniProt P70327 90-277); test: quantitative EMSA; Hill coefficient 3.18; 25 mM HEPES pH 7.4, 75 mM NaCl, 1 mM DTT, 0.25 mM EDTA, 0.1% NP-40, 1 mM MgCl2, 10% glycerol, 10 µg/ml BSA, 0.1 mg/ml poly dI-dC; room temperature, 20 min (1 h); conditions: protein: recombinant; tags: N-terminal His (pET151/D-TOPO); Methods: removed by TEV; label: 32P 5' end label; blunt (annealed; only one strand given)
T2 sequence: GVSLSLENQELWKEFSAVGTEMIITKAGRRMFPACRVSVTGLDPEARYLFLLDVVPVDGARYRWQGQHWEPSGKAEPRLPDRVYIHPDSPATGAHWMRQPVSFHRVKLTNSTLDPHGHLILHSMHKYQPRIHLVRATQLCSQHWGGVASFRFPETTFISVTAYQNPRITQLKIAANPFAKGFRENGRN

Tbx6-DBD (T-domain) [3] = molecular target: T2, Tbx6-DBD (T-domain); test: quantitative EMSA; Hill coefficient 2.97; 25 mM HEPES pH 7.4, 75 mM NaCl, 1 mM DTT, 0.25 mM EDTA, 0.1% NP-40, 1 mM MgCl2, 10% glycerol, 10 µg/ml BSA, 0.1 mg/ml poly dI-dC; room temperature, 20 min (1 h); conditions: protein: recombinant; tags: N-terminal His (pET151/D-TOPO); Methods: removed by TEV; label: 32P 5' end label; blunt (annealed; only one strand given)

B1: Dll1 BS2 (dsDNA)
DNA 1: TCCCGAGGTGTGATTCTTGGA
DNA 2: TCCAAGAATCACACCTCGGGA
[1]
  Kd: 13.9 µM
Tbx6-DBD (T-domain) [2]
  Kd: 1300 nM

B2: Dll1 BS1 (dsDNA)
DNA 1: TCACTGTAGGTGTTGCTGTCCTGT
DNA 2: ACAGGACAGCAACACCTACAGTGA
Tbx6-DBD (T-domain) [3]
  Kd: 1530 nM
